From patent US20120172295A1 (INDIANA UNIVERSITY RESEARCH AND TECHNOLOGY, published 2012)
Read-outs that look alike come from different tables or passages of the source. Starred links: 1 amine or outer side, 2 acyl side, 3 side chain; linkers in the order of their positions; H or OH if unused. Positions of bridges follow the written chain, without caps; N, C: chain ends. Non-standard residues stand in square brackets, D forms with d. No end group written: not given here. *: point of attachment. Dab(Ac) = acetyldiaminobutanoic acid, CC(=O)NCC[C@H](N[*:1])C(=O)[*:2]; C(Acm) = acetamidomethyl-cysteine, CC(=O)NCSC[C@H](N[*:1])C(=O)[*:2]; Orn(Ac) = acetylornithine, CC(=O)NCCC[C@H](N[*:1])C(=O)[*:2]; Isobutyryl(2-imidazol-4-yl) = CC(C)(C(=O)*)c1c[nH]cn1; Dap(CONH2) = NC(=O)NC[C@H](N)C(=O)O; Stearoyl = CCCCCCCCCCCCCCCCCC(=O)*; Palmitoyl = CCCCCCCCCCCCCCCC(=O)*; Met(O) = CS(=O)CC[C@H](N)C(=O)O; Myristoyl = CCCCCCCCCCCCCC(=O)*; Nle = CCCC[C@H](N)C(=O)O; DMIA = not defined here; Dab = NCC[C@H](N)C(=O)O; PEG = not defined here; Aib = CC(C)(N)C(=O)O

Legend:
Assay in all cases: cell-based or functional assay
[1] = target: T1, glucagon receptor (UniProt P47871 26-477, limits assumed)
[2] = target: T2, GLP-1 receptor (UniProt P43220 24-463, limits assumed)
[3] = target: T1, glucagon receptor; remark: listed apart in the source
[4] = target: T2, GLP-1 receptor; remark: listed apart in the source
[5] = target: T1, glucagon receptor; remark: listed apart in the source

T1 sequence (P47871 26-477 limits assumed): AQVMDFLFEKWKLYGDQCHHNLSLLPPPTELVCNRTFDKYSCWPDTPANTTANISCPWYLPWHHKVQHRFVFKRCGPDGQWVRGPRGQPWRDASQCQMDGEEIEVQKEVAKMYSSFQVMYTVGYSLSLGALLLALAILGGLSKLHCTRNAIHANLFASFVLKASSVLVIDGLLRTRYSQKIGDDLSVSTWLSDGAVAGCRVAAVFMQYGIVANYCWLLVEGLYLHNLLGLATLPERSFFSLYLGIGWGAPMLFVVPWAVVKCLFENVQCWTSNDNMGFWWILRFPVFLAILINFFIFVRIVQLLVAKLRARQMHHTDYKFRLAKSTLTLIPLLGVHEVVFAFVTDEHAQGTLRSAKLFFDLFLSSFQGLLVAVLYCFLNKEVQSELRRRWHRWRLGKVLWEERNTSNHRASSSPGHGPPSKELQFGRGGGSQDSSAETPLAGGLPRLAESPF

| Binder | % Potency Relative to Native [1] [%] | % Potency Relative to Native [2] [%] | % Activity of Glucagon [3] [%] | % Activity of GLP-1 [4] [%] | % activity [5] [%] | other results |
| --- | --- | --- | --- | --- | --- | --- |
| H[Aib]QGTFTSDYSKYLDERRAKDFVCWLMNT-NH2 (lactam 16-20; N-terminus assumed; SMILES CSCC[C@H](NC(=O)[C@H](CC(C)C)NC(=O)[C@H](Cc1c[nH]c2ccccc12)NC(=O)[C@H](CS)NC(=O)[C@@H](NC(=O)[C@H](Cc1ccccc1)NC(=O)[C@H](CC(=O)O)NC(=O)[C@@H]1CCCCNC(=O)CC[C@H](NC(=O)[C@H](CC(=O)O)NC(=O)[C@H](CC(C)C)NC(=O)[C@H](Cc2ccc(O)cc2)NC(=O)[C@H](CCCCN)NC(=O)[C@H](CO)NC(=O)[C@H](Cc2ccc(O)cc2)NC(=O)[C@H](CC(=O)O)NC(=O)[C@H](CO)NC(=O)[C@@H](NC(=O)[C@H](Cc2ccccc2)NC(=O)[C@@H](NC(=O)CNC(=O)[C@H](CCC(N)=O)NC(=O)C(C)(C)NC(=O)[C@@H](N)Cc2c[nH]cn2)[C@@H](C)O)[C@@H](C)O)C(=O)N[C@@H](CCCNC(=N)N)C(=O)N[C@@H](CCCNC(=N)N)C(=O)N[C@@H](C)C(=O)N1)C(C)C)C(=O)N[C@@H](CC(N)=O)C(=O)N[C@H](C(N)=O)[C@@H](C)O) [E16, K20 AIB2, Cys24 Lactam (SEQ ID NO: 517), parent w/o PEG] | 108 | 96.9 |  |  |  |  |
| H[Aib]QGTFTSDYSKYLDERRAKDFVC(PEG)WLMNT-NH2 (lactam 16-20; reading uncertain) [E16, K20 AIB2, Cys24 Lactam (SEQ ID NO: 517), parent w/PEG] | 15.8 | 31 |  |  |  |  |
| HSQGTFTSDYSKYLDEQAAKEFIC(PEG)WLMNT-NH2 (reading uncertain) [Chimera Cys24 (SEQ ID NO: 518), parent w/PEG] | 19.8 | 29.3 |  |  |  |  |
| [DMIA]SQGTFTSDYSKYLDERRAKDFVCWLMNGGPSSGAPPPS-NH2 (lactam 16-20; reading uncertain) [E16, K20 DMIA1, Gly29,30 Cys24 Cex Lactam (SEQ ID NO: 513), parent w/o PEG] | 116 | 78.3 |  |  |  |  |
| [Isobutyryl(2-imidazol-4-yl)]SQGTFTSDYSKYLDERRAKDFVC(PEG)WLMNGGPSSGAPPPS-NH2 (lactam 16-20; reading uncertain; also: PEG size not given here) [E16, K20 DMIA1, Gly29,30 Cys24 Cex Lactam (SEQ ID NO: 513), parent w/PEG] | 12.6 | 11.3 |  |  |  |  |
| [Isobutyryl(2-imidazol-4-yl)]SQGTFTSDYSKYLDEQAAKEFIAWLMNC(PEG)-NH2 (reading uncertain) [Chimera DMIA1, Cys29 (SEQ ID NO: 520), parent w/PEG] | 5.3 | 27.3 |  |  |  |  |
| [Isobutyryl(2-imidazol-4-yl)]SQGTFTSDYSKYLDEQAAKEFICWLMNT-NH2 (SMILES CC[C@H](C)[C@H](NC(=O)[C@H](Cc1ccccc1)NC(=O)[C@H](CCC(=O)O)NC(=O)[C@H](CCCCN)NC(=O)[C@H](C)NC(=O)[C@H](C)NC(=O)[C@H](CCC(N)=O)NC(=O)[C@H](CCC(=O)O)NC(=O)[C@H](CC(=O)O)NC(=O)[C@H](CC(C)C)NC(=O)[C@H](Cc1ccc(O)cc1)NC(=O)[C@H](CCCCN)NC(=O)[C@H](CO)NC(=O)[C@H](Cc1ccc(O)cc1)NC(=O)[C@H](CC(=O)O)NC(=O)[C@H](CO)NC(=O)[C@@H](NC(=O)[C@H](Cc1ccccc1)NC(=O)[C@@H](NC(=O)CNC(=O)[C@H](CCC(N)=O)NC(=O)[C@H](CO)NC(=O)C(C)(C)c1c[nH]cn1)[C@@H](C)O)[C@@H](C)O)C(=O)N[C@@H](CS)C(=O)N[C@@H](Cc1c[nH]c2ccccc12)C(=O)N[C@@H](CC(C)C)C(=O)N[C@@H](CCSC)C(=O)N[C@@H](CC(N)=O)C(=O)N[C@H](C(N)=O)[C@@H](C)O) [Chimera DMIA1, Cys24 (SEQ ID NO: 519), parent w/o PEG] | 28.9 | 64.5 |  |  |  |  |
| [Isobutyryl(2-imidazol-4-yl)]SQGTFTSDYSKYLDEQAAKEFIC(PEG)WLMNT-NH2 (reading uncertain) [Chimera DMIA1, Cys24 (SEQ ID NO: 519), parent w/PEG] | 6.9 | 19.3 |  |  |  |  |
| [DMIA]SQGTFTSDK(Myristoyl)SKYLDERRAKDFVQWLMNT-NH2 (reading uncertain) [DMIA1, K10(C14), [E16/K20]-Gluc Amide] |  |  | 204 | 30 |  | EC50 [4]: 0.05 nM |
| XSQGTFTSDKSKYLDERRAKDFVQWLMNT (DMIA at 1; Lys 10-C16 acyl; [E16/K20]; C-terminal amide) [DMIA1, K10(C16), [E16/K20]-Gluc Amide] |  |  | 392 | 100 |  |  |
| XSQGTFTSDKSKYLDERRAKDFVQWLMNT (DMIA at 1; Lys 10-C18 acyl; [E16/K20]; C-terminal amide) [DMIA1, K10(C18), [E16/K20]-Gluc Amide] |  |  | 42.3 | 136 |  | EC50 [4]: 0.011 nM |
| H[Aib]QGTFTSDK(Myristoyl)SKYLD[Aib]RRAQDFVQWLMNT-NH2 (N-terminus assumed; SMILES CCCCCCCCCCCCCC(=O)NCCCC[C@H](NC(=O)[C@H](CC(=O)O)NC(=O)[C@H](CO)NC(=O)[C@@H](NC(=O)[C@H](Cc1ccccc1)NC(=O)[C@@H](NC(=O)CNC(=O)[C@H](CCC(N)=O)NC(=O)C(C)(C)NC(=O)[C@@H](N)Cc1c[nH]cn1)[C@@H](C)O)[C@@H](C)O)C(=O)N[C@@H](CO)C(=O)N[C@@H](CCCCN)C(=O)N[C@@H](Cc1ccc(O)cc1)C(=O)N[C@@H](CC(C)C)C(=O)N[C@@H](CC(=O)O)C(=O)NC(C)(C)C(=O)N[C@@H](CCCNC(=N)N)C(=O)N[C@@H](CCCNC(=N)N)C(=O)N[C@@H](C)C(=O)N[C@@H](CCC(N)=O)C(=O)N[C@@H](CC(=O)O)C(=O)N[C@@H](Cc1ccccc1)C(=O)N[C@H](C(=O)N[C@@H](CCC(N)=O)C(=O)N[C@@H](Cc1c[nH]c2ccccc12)C(=O)N[C@@H](CC(C)C)C(=O)N[C@@H](CCSC)C(=O)N[C@@H](CC(N)=O)C(=O)N[C@H](C(N)=O)[C@@H](C)O)C(C)C) [AIB2, AIB16, K10(C14) Gluc Amide] |  |  | 77.3 | 33.3 |  | EC50 [3]: 0.044 nM; EC50 [4]: 0.024 nM |
| H[Aib]QGTFTSDK(Palmitoyl)SKYLD[Aib]RRAQDFVQWLMNT-NH2 [AIB2, AIB16, K10(C16) Gluc Amide (SEQ ID NO: 611)] |  |  | 170 | 72.3 |  | EC50 [3]: 0.02 nM |
| H[Aib]QGTFTSDK(Stearoyl)SKYLD[Aib]RRAQDFVQWLMNT-NH2 (N-terminus assumed; SMILES CCCCCCCCCCCCCCCCCC(=O)NCCCC[C@H](NC(=O)[C@H](CC(=O)O)NC(=O)[C@H](CO)NC(=O)[C@@H](NC(=O)[C@H](Cc1ccccc1)NC(=O)[C@@H](NC(=O)CNC(=O)[C@H](CCC(N)=O)NC(=O)C(C)(C)NC(=O)[C@@H](N)Cc1c[nH]cn1)[C@@H](C)O)[C@@H](C)O)C(=O)N[C@@H](CO)C(=O)N[C@@H](CCCCN)C(=O)N[C@@H](Cc1ccc(O)cc1)C(=O)N[C@@H](CC(C)C)C(=O)N[C@@H](CC(=O)O)C(=O)NC(C)(C)C(=O)N[C@@H](CCCNC(=N)N)C(=O)N[C@@H](CCCNC(=N)N)C(=O)N[C@@H](C)C(=O)N[C@@H](CCC(N)=O)C(=O)N[C@@H](CC(=O)O)C(=O)N[C@@H](Cc1ccccc1)C(=O)N[C@H](C(=O)N[C@@H](CCC(N)=O)C(=O)N[C@@H](Cc1c[nH]c2ccccc12)C(=O)N[C@@H](CC(C)C)C(=O)N[C@@H](CCSC)C(=O)N[C@@H](CC(N)=O)C(=O)N[C@H](C(N)=O)[C@@H](C)O)C(C)C) [AIB2, AIB16, K10(C18) Gluc Amide] |  |  | 212 | 88.9 |  | EC50 [3]: 0.016 nM; EC50 [4]: 0.009 nM |
| HXQGTFTSDKSKYLDERRAKDFVQWLMNT (d-Ser at 2; Lys 10-C14 acyl; C-terminal amide) [dS2, E16/K20, K10(C14) Gluc Amide] |  |  | 21.9 | 6.3 |  | EC50 [3]: 0.155 nM; EC50 [4]: 0.128 nM |
| HXQGTFTSDKSKYLDERRAKDFVQWLMNT (d-Ser at 2; Lys 10-C16 acyl; C-terminal amide) [dS2, E16/K20, K10(C16) Gluc Amide] |  |  | 44.7 | 19.5 |  | EC50 [3]: 0.076 nM; EC50 [4]: 0.041 nM |
| HXQGTFTSDKSKYLDERRAKDFVQWLMNT (d-Ser at 2; Lys 10-C18 acyl; C-terminal amide) [dS2, E16/K20, K10(C18) Gluc Amide] |  |  | 196 | 60 |  | EC50 [4]: 0.025 nM |
| HSQGTFTSDYSKYLDTRRAAEFVAWL[Nle]DE [Peptide J backbone, Q at position 3 (SEQ ID NO: 593)] |  |  |  |  | 25 |  |
| HS[C(Acm)]GTFTSDYSKYLDTRRAAEFVAWL[Nle]DE [Peptide J backbone, C(Acm) at position 3 (SEQ ID NO: 594)] |  |  |  |  | 33 | EC50 [5]: 0.18 nM |
| HS[Dab(Ac)]GTFTSDYSKYLDTRRAAEFVAWL[Nle]DE [Peptide J backbone, Dab(Ac) at position 3 (SEQ ID NO: 595)] |  |  |  |  | 19 | EC50 [5]: 0.31 nM |
| HS[Dap(CONH2)]GTFTSDYSKYLDTRRAAEFVAWL[Nle]DE [Peptide J backbone, Dap(urea) at position 3 (SEQ ID NO: 596)] |  |  |  |  | 13 | EC50 [5]: 0.48 nM |
| HS[Met(O)]GTFTSDYSKYLDTRRAAEFVAWL[Nle]DE [Peptide J backbone, M(O) at position 3 (SEQ ID NO: 598)] |  |  |  |  | 7 | EC50 [5]: 0.91 nM |
| HS[Orn(Ac)]GTFTSDYSKYLDTRRAAEFVAWL[Nle]DE [Peptide J backbone, Orn(Ac) at position 3 (SEQ ID NO: 599)] |  |  |  |  | 7 | EC50 [5]: 0.92 nM |
| HSQGTFTSDYSKYLD[Aib]RRAADFVAWLMDE [Peptide K backbone, Q at position 3 (SEQ ID NO: 600)] |  |  |  |  | 15 |  |
| HS[Dab](Ac)GTFTSDYSKYLD[Aib]RRAADFVAWLMDE [Peptide K backbone, Dab(Ac) at position 3 (SEQ ID NO: 601)] |  |  |  |  | 86 | EC50 [5]: 0.07 nM |
